This passage reports Kd, koff and kon results from paper PMC10703496.

Test [1] concerns the target ACE2(18–740)-QMP: truncated dimeric human ACE2 (residues 18–740) fused to the N-terminal end of engi (human) (UniProt Q9BYF1). As to the kind of experiment: SPR; pH 5.5.
The target is the same in test [2]. As to the kind of experiment: SPR.

Sequence of soluble His-tagged human neonatal Fc receptor (human FcRn-His) (P55899 24-297): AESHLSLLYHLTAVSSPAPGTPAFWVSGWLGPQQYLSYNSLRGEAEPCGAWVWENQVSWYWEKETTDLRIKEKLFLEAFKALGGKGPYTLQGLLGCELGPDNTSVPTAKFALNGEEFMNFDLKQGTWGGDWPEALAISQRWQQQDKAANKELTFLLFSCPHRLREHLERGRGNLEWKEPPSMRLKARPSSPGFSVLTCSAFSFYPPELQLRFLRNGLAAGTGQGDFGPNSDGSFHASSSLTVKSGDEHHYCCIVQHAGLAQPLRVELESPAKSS
Sequence of soluble His-tagged human neonatal Fc receptor (human FcRn-His) (P61769 21-119): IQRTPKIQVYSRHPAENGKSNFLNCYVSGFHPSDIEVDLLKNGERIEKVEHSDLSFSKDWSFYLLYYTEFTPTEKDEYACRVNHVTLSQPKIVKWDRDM

With “soluble His-tagged human neonatal Fc receptor (human FcRn-His) (from UniProt P55899 24-297; P61769 21-119)”, in test [1], the Kd came to 0.8 nM and the koff was determined as 0.0002 s⁻¹. Also, the kon in test [2] came out at 254000 M⁻¹ s⁻¹.

By Kd is commonly meant the concentration at which binding is half-saturated. As usually defined, the koff is the first-order rate constant of dissociation. A word on the kon: it is the second-order rate constant of association.
